Laboratory results reported in paper PMC3901155.

Substrate: Nc1ncnc2c1ncn2[C@@H]1O[C@H](COP(=O)(O)O)[C@@H](OP(=O)(O)O)[C@H]1O
Assay: purified protein
Type: biochemical, Rattus norvegicus
Settings: 5 mM p-nitrophenyl sulfate, pH 7.0, 37 °C

B1: AST-IV (Rattus norvegicus) (protein)
chain: MEFSRPPLVHVKGIPLIKYFAETIGPLQNFTAWPDDLLISTYPKSGTTWMSEILDMIYQGGKLEKCGRAPIYARVPFLEFKCPGVPSGLETLEETPAPRLLKTHLPLSLLPQSLLDQKVKVIYIARNAKDVVVSYYNFYNMAKLHPDPGTWDSFLENFMDGEVSYGSWYQHVKEWWELRHTHPVLYLFYEDIKENPKREIKKILEFLGRSLPEETVDSIVHHTSFKKMKENCMTNYTTIPTEIMDHNVSPFMRKGTTGDWKNTFTVAQNERFDAHYAKTMTDCDFKFRCEL
**Q.** Which Km does the source give for B1 here?
**A.** The Km was 25.3 µM.
